Experimental data published in US7592168B2, “Cephalosporin C acylase mutant and method for preparing 7-ACA using same” (Sandoz AG, priority 2003, dated 2009).

System: [H][C@]12SCC(COC(C)=O)=C(C(=O)O)N1C(=O)[C@H]2NC(=O)CCC[C@@H](N)C(=O)O
Assay: CPC hydrolysis kinetics (Lineweaver-Burk plot), fivefold mutant
Format: biochemical, Pseudomonas sp. SE83
Conditions: other: substrate CPC, purified enzyme, 0.1 M Tris-HCl pH 8.0, 37° C.
Experimental: The enzyme activity of CPC acylase mutant to CPC was measured according to the method described by Park et al. with minor modifications as follows (Park, et al., Kor. J. Appl. Microbiol. Biotechnol. 23: 559-564, 1995). A substrate solution was prepared by dissolving CPC (purity 74.2%; CJ Corp., Korea) in 0.1 M Tris-HCl buffer solution (pH 8.0) at a concentration of 20 mg/ml and adjusting pH to 8 with 1 N NaOH. 20 μl of the CPC solution was mixed with 20 μl of the crude enzyme solution prepared above and the reaction mixture was incubated at 37° C. for 5 min. After the reaction, the mixture (200 μl) of 50 mM NaOH and 20% glacial acetic acid (1:2) was added thereto to stop the reaction. 200 μl of the supernatant recovered from the reaction mixture by centrifugation was mixed with 40 μl of 0.5% (w/v) PDAB (p-dimethylaminobenzaldehyde; Sigma, USA) dissolved in a methanol and the reaction mixture was incubated at 37° C. for 10 min. After the reaction, the absorbance of reaction mixture was measured at 415 nm and quantified by comparing with a calibration curve of standard material. […] Meanwhile, the specific activity of CPC acylase mutant for CPC was determined by measuring the amount of protein remaining in the enzyme solution according to the method described by Bradford (Bradford, M., Anal. Biochem. 72: 248-254, 1976) and representing it as an active unit corresponding to 1 mg of protein. […]

Question: For “Pseudomonas sp. SE83 CPC acylase AcyII fivefold mutant F169αY/M31βL/F58βM/H70βS/I176βV (mI176) (Pseudomonas sp. SE83; F170Y/F297M/H309S/I415V/M270L)”, which Km is on record?
Answer: Its Km is 8 mM.
